Test in all cases: co-sedimentation
Test [1] addresses T1, Rabbit skeletal muscle α-actin filaments (F-actin) (rabbit, UniProt P68135 1-377).
Test [2] deals with Yeast (Saccharomyces cerevisiae) actin, wild type, filaments (Saccharomyces cerevisiae, UniProt P60010 1-375).
Test [3] deals with T1, Rabbit skeletal muscle α-actin …. This is another data set of the same source.

B1: Human vinculin tail (VT, residues 879-1066) (domain or fragment, UniProt P18206-2 879-1066, looked up)
chain: EEKDEEFPEQKAGEVINQPMMMAARQLHDEARKWSSKGNDIIAAAKRMALLMAEMSRLVRGGSGTKRALIQCAKDIAKASDEVTRLAKEVAKQCTDKRIRTNLLQVCERIPTISTQLKILSTVKATMLGRTNISDEESEQATEMLVHNAQNLMQSVKETVREAEAASIKIRTDAGFTLRWVRKTPWYQ
With B1, the “stoichiometry N” value in test [1] was determined as 1. The binding result in test [2] is “binds”.

B2: Human metavinculin tail (MVT, residues 879-1134) (domain or fragment)
chain: EEKDEEFPEQKAGEVINQPMMMAARQLHDEARKWSSKPGIPAAEVGIGVVAEADAADAAGFPVPPDMEDDYEPELLLMPSNQPVNQPILAAAQSLHREATKWSSKGNDIIAAAKRMALLMAEMSRLVRGGSGTKRALIQCAKDIAKASDEVTRLAKEVAKQCTDKRIRTNLLQVCERIPTISTQLKILSTVKATMLGRTNISDEESEQATEMLVHNAQNLMQSVKETVREAEAASIKIRTDAGFTLRWVRKTPWYQ
Take B2: the “stoichiometry N” value in test [1] was found to be 1. In test [3], this molecule came in with a dissociation constant Kd of 560 ± 90 nM.

What is called stoichiometry N is a count of units in the complex or per binding partner. The Kd is the free concentration of one partner at which half of the binding sites on the other are occupied at equilibrium, for simple one-to-one binding.

The record behind these values is PMC4540644 (Journal of molecular biology, 2015).
